These results are taken from patent US9322000B2, “Methanol dehydrogenase enzymes from Bacillus” (Sinvent AS, priority 2012, dated 2016).

In data set [1] the test system is 13C-methanol. Briefly: 13C-methanol labeling of genetically engineered B. subtilis. The data set is classed as cell-based. The conditions noted are these: B. subtilis 168 expressing Act, Mdh3, HxlA. The procedure:
For the labeling experiments we used the B. subtilis strain that expresses Act, Mdh3, HxlA and HxlB and the strain that expresses Act, Mdh3, HxlA, HxlB, GlpX, Fba, Tkt, Pfk and Rpe. As a negative control the B. subtilis strain with the empty pHCMC04 plasmid was used. All B. subtilis strains were grown on M9 medium containing (per liter) 3.48 g Na2HPO4.12H20, 0.60 g of KH2PO4, 0.51 g of NaCl, 2.04 g of NH4Cl, 0.10 g of MgSO4, 4.38 mg of CaCl2, 15 mg of Na2EDTA.2H2O, 4.5 mg of ZnSO4.7H2O, 0.3 mg of CoCl2.6 H2O, 1 mg of MnCl2.4H2O, 1 mg of H3BO3, 0.4 mg of Na2MoO4.2H2O, 3 mg of FeSO4.7H2O and 0.3 mg of CuSO4.5H2O, 10 g of xylose (i.e. inducer) and 5 mg of chloramphenicol. All the cultivations were performed at 37° C. Cells strains were plated from a glycerol stock on a LB agar plate (10 g/l of tryptone, 5 g/l of yeast extract, 10 g/l of NaCl, and 16 g/l agar) containing 5 μg/ml of chloramphenicol and grown afterwards on a LB+chloramphenicol liquid medium for approximately 5 hours. The liquid pre-cultures containing M9 medium were inoculated from the LB cultures at a final OD600 between 1.4 and 1.8. […] The labeling patterns of intracellular metabolites were measured using a Dionex ICS 2000 system (Dionex, Sunnyvale, USA) coupled to a triple quadrupole QTrap 4000 mass spectrometer (Applied Biosystems, Foster City, USA).

Data set [2] in a line: Substrate specificity of purified MDH proteins on alternative alcohols. Format: biochemical. The conditions noted are these: all alternative alcohol substrates. The procedure:
FIG. 3. Catalytic activities of purified Mdh (black), Mdh2 (dark grey) and Mdh3 (light grey) on various alcohols (200 mM) tested in vitro. (A) Substrate specificity was analysed for MDHs from B. methanolicus MGA3 in vitro. Alcohol substrates were used at concentrations of 500 mM except for pentanol (300 mM) and hexanol (50 mM). The data were calculated from the mean value from two experiments which were done in triplicate. (B) Substrate specificity for MDHs from B. methanolicus PB1 was analysed in vitro. Alcohol substrates were used at concentrations of 500 mM except for pentanol (300 mM) and hexanol (50 mM). The data were calculated from the mean value from two experiments which were done in triplicate.
Alcohol dehydrogenase activities were measured spectrophotometrically essentially as described previously (Hektor, Kloosterman et al. (2002) Chem 277(49): 46966-46973) and the reaction mixture contained: 100 mM Glycine-KOH pH 9.5 (unless otherwise stated), 5 mM MgSO4, 0.5 mM NAD^+ and 500 mM alcohol (methanol, ethanol, propanol, 1,3-propanediol, or butanol). NAD^+ was substituted with equal concentrations of NADP^+, FMN^+, and FAD^+, when indicated. […] The reactions were started by addition of 5-40 μg of the purified MDH proteins, and the production of NADH was monitored at 340 nm for 4 minutes. […]

Data set [3] deals with 13C-methanol. The data set can be described thus: 13C-methanol labeling of genetically engineered C. glutamicum. Format: cell-based. The conditions noted are these: C. glutamicum delta ald expressing Mdh2, Hps and Phi; 40 mM 13C-methanol; 30 and 90 minutes. The procedure: For the labeling experiments we used the C. glutamicum delta ald strain that expresses Mdh2-MGA3 (pVWEx1-Mdh2), Hps and Phi (pEKEX3−Hps+Phi). As a negative control the C. glutamicum delta ald strain with the empty pEKEX3 plasmid was used. All C. glutamicum strains were grown on M9 medium containing (per liter) 3.48 g Na2HPO4.12 H2O, 0.60 g of KH2PO4, 0.51 g of NaCl, 2.04 g of NH4Cl, 0.10 g of MgSO4, 4.38 mg of CaCl2, 15 mg of Na2EDTA.2H2O, 4.5 mg of ZnSO4.7 H2O, 0.3 mg of CoCl2.6 H2O, 1 mg of MnCl2.4H2O, 1 mg of H3BO3, 0.4 mg of Na2MoO4.2H2O, 3 mg of FeSO4.7H2O and 0.3 mg of CuSO4.5H2O. For all the cultivation (M9 or LB), 1 mM of IPTG was used as inducer and 100 μg/ml of spectinomycin and 25 μg/ml of kanamycin were added in the medium as resistant markers. All the cultivations were performed at 30° C. Cell strains were plated from a glycerol stock on a LB agar plate (10 g/l of tryptone, 5 g/l of yeast extract, 10 g/l of NaCl, and 16 g/l agar) and grown afterwards on a LB liquid medium for 6 hours. The liquid pre-cultures containing M9 medium plus 3 g/l ribose were inoculated from the LB cultures at a final OD600 of 0.6 for 12 hours. […] The labeling patterns of intracellular metabolites were measured using a Dionex ICS 2000 system (Dionex, Sunnyvale, USA) coupled to a triple quadrupole QTrap 4000 mass spectrometer (Applied Biosystems, Foster City, USA).

B1: Mdh3-MGA3: NAD-dependent methanol dehydrogenase encoded by chromosomal gene mdh3 of B. methanolicus MGA3, SEQ ID NO. 4 (protein)
chain: MKNTQSAFYMPSVNLFGAGSVNEVGTRLAGLGVKKALLVTDAGLHSLGLSEKIAGIIREAGVEVAIFPKAEPNPTDKNVAEGLEAYNAENCDSIVTLGGGSSHDAGKAIALVAANGGTIHDYEGVDVSKKPMVPLIAINTTAGTGSELTKFTIITDTERKVKMAIVDKHVTPTLSINDPELMVGMPPSLTAATGLDALTHAIEAYVSTGATPITDALAIQAIKIISKYLPRAVANGKDIEAREQMAFAQSLAGMAFNNAGLGYVHAIAHQLGGFYNFPHGVCNAILLPHVCRFNLISKVERYAEIAAFLGENVDGLSTYEAAEKAIKAIERMARDLNIPKGFKELGAKEEDIETLAKNAMNDACALTNPRKPKLEEVIQIIKNAM
modifications: Bacillus methanolicus MGA3
Regarding B1, the “13C labeling of metabolites (mass isotopomer fraction M1)” value in data set [1] (HxlB plus overexpressed PPP genes) is recorded as “significant labeling incorporation was detected”; in data set [1] (HxlB, no PPP genes overexpressed) it was “no labeling was found”. In addition, in data set [2], the “catalytic activity on alternative alcohols compared with the remaining MDHs” value was “significantly higher catalytic activity than the remaining enzymes”.

B2: Mdh2-MGA3: NAD-dependent methanol dehydrogenase encoded by chromosomal gene mdh2 of B. methanolicus MGA3, SEQ ID NO. 2 (protein)
chain: MTNTQSAFFMPSVNLFGAGSVNEVGTRLADLGVKKALLVTDAGLHGLGLSEKISSIIRAAGVEVSIFPKAEPNPTDKNVAEGLEAYNAENCDSIVTLGGGSSHDAGKAIALVAANGGKIHDYEGVDVSKEPMVPLIAINTTAGTGSELTKFTIITDTERKVKMAIVDKHVTPTLSINDPELMVGMPPSLTAATGLDALTHAIEAYVSTGATPITDALAIQAIKIISKYLPRAVANGKDIEAREQMAFAQSLAGMAFNNAGLGYVHAIAHQLGGFYNFPHGVCNAVLLPYVCRFNLISKVERYAEIAAFLGENVDGLSTYDAAEKAIKAIERMAKDLNIPKGFKELGAKEEDIETLAKNAMKDACALTNPRKPKLEEVIQIIKNAM
modifications: Bacillus methanolicus MGA3
B2: the “13C label incorporation into metabolites (mass isotopomer fraction M1)” value in data set [3] is listed as “Significant label incorporation into metabolites was observed”.
